How the values were obtained:
Assay in all cases: cell-based or functional assay
[1] = target: T1, Recombinant human IL-23 (human, UniProt P29460 23-328)
T1 sequence 1: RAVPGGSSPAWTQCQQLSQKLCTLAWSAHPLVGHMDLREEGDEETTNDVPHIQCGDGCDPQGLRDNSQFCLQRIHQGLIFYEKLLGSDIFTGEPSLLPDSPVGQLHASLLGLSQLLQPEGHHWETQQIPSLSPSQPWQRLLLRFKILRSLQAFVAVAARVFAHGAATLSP
T1 sequence 2: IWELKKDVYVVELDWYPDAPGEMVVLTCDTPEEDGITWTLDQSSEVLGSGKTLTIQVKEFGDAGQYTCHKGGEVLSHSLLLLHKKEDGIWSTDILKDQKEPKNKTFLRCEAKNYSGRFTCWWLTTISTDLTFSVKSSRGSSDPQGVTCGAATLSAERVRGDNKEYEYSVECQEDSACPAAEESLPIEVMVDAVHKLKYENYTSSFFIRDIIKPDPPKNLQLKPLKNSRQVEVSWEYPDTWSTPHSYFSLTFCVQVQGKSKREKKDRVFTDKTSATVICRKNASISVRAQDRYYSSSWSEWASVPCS

[2] = target: cynomolgus IL-23 (cynomolgus, UniProt H6WS56 20-189)
[3] = target: T1, Recombinant human IL-23; remark: listed apart in the source

- IC50, STAT3-luciferase reporter in DB lymphoblast B cells [1]: 0.079 nM
- IC90, STAT3-luciferase reporter in DB lymphoblast B cells [1]: 0.634 nM
- IC50, IL-23-induced mouse IL-17 release from mouse splenocytes [2]: 0.064 nM
- IC90, IL-23-induced mouse IL-17 release from mouse splenocytes [2]: 0.331 nM
- IC50, IL-23-induced mouse IL-17 release from mouse splenocytes [3]: 0.084 nM
- IC90, IL-23-induced mouse IL-17 release from mouse splenocytes [3]: 0.366 nM
B1: Control Antibody 4 (anti-IL-23A monoclonal antibody) (IL-23A (1)) (antibody, V domains shown)
VH: QVQLVQSGAEVKKPGSSVKVSCKASGYTFTDQTIHWMRQAPGQGLEWIGYIYPRDDSPKYNENFKGKVTITADKSTSTAYMELSSLRSEDTAVYYCAIPDRSGYAWFIYWGQGTLVTVSS
VL: DIQMTQSPSSLSASVGDRVTITCKASRDVAIAVAWYQQKPGKVPKLLIYWASTRHTGVPSRFSGSGSRTDFTLTISSLQPEDVADYFCHQYSSYPFTFGSGTKLEIK

Source: patent US20210107998A1 (Boehringer Ingelheim, published 2021)
